This note sets out measurements from patent publication US20250223614A1.

Assay [1] deals with Cfa C-intein fused to the N-terminus of the C-terminal fragment of adenosine base editor ABE8.5 (starting at Cas9 position 310). The experiment in a line: cell-based or functional assay.
Assay [2] addresses Gp41.1 C-intein fused to the N-terminus of the C-terminal fragment of adenosine base editor ABE8.5 (starting at Cas9 position 310). The experiment in a line: cell-based or functional assay.

For “N-terminal fragment of adenosine base editor ABE8.5 (ending at Cas9 position 309) fused at its C-terminus to Cfa N-intein”, in assay [1], the A7G Edit % (Exp. 1); average (N = 4) percent A > G conversion came to 48.2%, the A7G Edit % (Exp. 2); average (N = 4) percent A > G conversion was determined as 74.7%, the A7G Edit; average percent A > G conversion measured in Exps. 1-3 is 64.3% and the A7G Edit; percent A > G conversion (Exp. 3) was 70%.

In assay [2], “N-terminal fragment of adenosine base editor ABE8.5 (ending at Cas9 position 309) fused at its C-terminus to the Gp41.1-SC N-intein” registered an A7G Edit % (Exp. 1); average (N = 4) percent A > G conversion of 54.9%, an A7G Edit % (Exp. 2); average (N = 4) percent A > G conversion of 72.5% and an A7G Edit; average percent A > G conversion (2 experiments only) of 63.7%.
